Changes are numbered by the printed parent chain. Names and notes keep the numbering of the source. Read-outs that look alike come from different tables or passages of the source.
T1: monomeric cynomolgus monkey CSF1R ectodomain protein (cynomolgus monkey, UniProt P07333 20-517 (human entry))
T1 construct: also called monomeric cyno CSF1R; Cyno CSF1R
T1 chain: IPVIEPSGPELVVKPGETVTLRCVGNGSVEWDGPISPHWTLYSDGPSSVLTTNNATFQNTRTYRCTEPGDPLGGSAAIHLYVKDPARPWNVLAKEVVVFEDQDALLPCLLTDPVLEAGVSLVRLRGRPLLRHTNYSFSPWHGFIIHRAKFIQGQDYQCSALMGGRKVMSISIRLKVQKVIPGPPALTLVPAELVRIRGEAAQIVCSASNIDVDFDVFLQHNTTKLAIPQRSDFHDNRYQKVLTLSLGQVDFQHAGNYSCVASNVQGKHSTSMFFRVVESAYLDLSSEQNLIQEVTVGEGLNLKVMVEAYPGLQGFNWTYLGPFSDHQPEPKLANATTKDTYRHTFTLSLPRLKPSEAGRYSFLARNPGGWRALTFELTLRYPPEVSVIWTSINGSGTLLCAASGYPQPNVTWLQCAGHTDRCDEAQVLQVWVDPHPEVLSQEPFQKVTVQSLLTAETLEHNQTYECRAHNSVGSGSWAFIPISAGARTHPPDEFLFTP

B1: 29A03 (antibody, human IgG4, V domains shown)
VH: QVQLVQSGAEVKKPGSSVKVSCKASGYTFSSNYMIWVRQAPGQGLEWMGDINPYNGGATYNQKFQGRVTITADESTSTAYMELSSLRSEDTAVYYCAREPPYFSNLYVMDYWGQGTLVTVSS
VL: EIVLTQSPATLSLSPGERATLSCRASQSVEYEGENYLNWYQQKPGQAPRLLIYAASNRATGIPARFSGSGSGTDFTLTISSLEPEDFAVYYCQLSNQDLLTFGGGTKVEIK
notes: Library-derived clone, tested as human IgG4(S228P)/Ckappa IgG; framework residue limits counted on the grafts
B2: MH17 (antibody, human IgG4, V domains shown)
VH: B1 VH with N32A, T59N, N61A, P100G
VL: B1 VL with E30S, L82P, Q97E
notes: Deimmunized MH5 derivative, human IgG4(S228P)/Ckappa IgG
B3: MH25 (antibody, human IgG4, V domains shown)
VH: B1 VH with N32H, T59N, N61A, P100G
VL: B1 VL with E30S, L82P, Q97E
notes: as for B2
B4: MH37 (antibody, human IgG4, V domains shown)
VH: B1 VH with N32S, T59N, N61A, P100G, Q114R
VL: B1 VL with E30S, L82P, Q97E
notes: as for B2
B5: MH29 (antibody, human IgG4, V domains shown)
VH: B1 VH with T59N, N61A, P100G, Q114R
VL: B1 VL with E30S, L82P, Q97E
notes: as for B2
B6: MH24 (antibody, human IgG4, V domains shown)
VH: B1 VH with N32H, T59N, N61A, P100G
VL: B1 VL with E30S, L50S, N57D, L82P, Q97E
notes: as for B2
B7: MH40 (antibody, human IgG4, V domains shown)
VH: B1 VH with N32H, T59N, N61A, P100G, Q114R
VL: B1 VL with E30S, L50S, N57D, L82P, Q97E
notes: as for B2
B8: MH16 (antibody, human IgG4, V domains shown)
VH: B1 VH with N32A, T59N, N61A, P100G
VL: B1 VL with E30S, L50S, N57D, L82P, Q97E
notes: Deimmunized MH5 derivative, human IgG4(S228P)/Ckappa IgG; also called mAb-5
B9: MH12 (antibody, human IgG4, V domains shown)
VH: B1 VH with T59N, N61A, P100G
VL: B1 VL with E30S, L50S, N57D, L82P, Q97E
notes: Deimmunized MH5 derivative, human IgG4(S228P)/Ckappa IgG; also called mAb-4
B10: MH41 (antibody, human IgG4, V domains shown)
VH: B1 VH with N32H, T59N, N61A, P100G, Q114R
VL: B1 VL with E30S, L82P, Q97E
notes: Deimmunized MH5 derivative, human IgG4(S228P)/Ckappa IgG; also called MN41
B11: MH11 (antibody, human IgG4, V domains shown)
VH: B1 VH with T59N, N61A, P100G
VL: B1 VL with E30S, L50A, L51A, L82P, Q97E
notes: as for B2
B12: MH32 (antibody, human IgG4, V domains shown)
VH: B1 VH with N32A, T59N, N61A, P100G, Q114R
VL: B1 VL with E30S, L50S, N57D, L82P, Q97E
notes: Deimmunized MH5 derivative, human IgG4(S228P)/Ckappa IgG; also called MN32
B13: MH20 (antibody, human IgG4, V domains shown)
VH: B1 VH with N32S, T59N, N61A, P100G
VL: B1 VL with E30S, L50S, N57D, L82P, Q97E
notes: as for B2
B14: MH10 (antibody, human IgG4, V domains shown)
VH: B1 VH with T59N, N61A, P100G
VL: B1 VL with E30S, L50S, L51A, L82P, Q97E
notes: as for B2
B15: MH21 (antibody, human IgG4, V domains shown)
VH: B1 VH with N32S, T59N, N61A, P100G
VL: B1 VL with E30S, L82P, Q97E
notes: as for B2

How the values were obtained:
[1] = biological target: T2, monomeric human CSF1R ectodomain protein (human, UniProt P07333 20-517); assay: SPR Biacore, IgG captured, monomeric CSF1R analyte
T2 construct: also called biotinylated monomeric human CSF1R
Description: (§1) Affinity (KD) of purified IgGs was determined via SPR with antigen in-solution on a Biacore 3000 (GE). A mouse anti-human antibody (CH1 specific) was immobilized on a CM5 Sensor Chip to a level of 2000 RU in acetate buffer at pH 4.5 using amine coupling following the Wizard instructions for two channels. One channel was used for background signal correction. The standard running buffer HBS-EP pH 7.4 was used. Regeneration was performed with a single injection of 10 μl of 10 mM Glycine at pH 1.5 at 20 μl/minute. IgG samples were injected for 2 minutes at 50 nM at 30 μl/min followed by and off-rate of 60 seconds. The monomeric ectodomain protein (human CSF1R or cynomolgus monkey CSF1R) was injected in two fold serial dilutions from 100 nM down to 3.1 nM, for 2 minutes at 30 μl/min followed by an off-rate of 300 seconds. The obtained sensorgrams were analysed using the Biacore 3000 evaluation (BIAevaluation) software. The KD was calculated by simultaneous fitting of the association and dissociation phases to a 1:1 Langmuir binding model.
(§2) Biacore analyses of binding affinity were performed for all IgGs to solution-phase, monomeric human and cyno CSF1R proteins (Table 6). […] Affinity differentials of less than 3-fold between human and cyno target orthologs are highly beneficial in pre-clinical drug development analyses as they allow more accurate design and interpretation of e.g. monkey safety, PK and PD modelling experiments.

[2] = biological target: T1, monomeric cynomolgus monkey CSF1R …; assay: SPR Biacore, IgG captured, monomeric CSF1R analyte
Description: as §1, §2

[3] = biological target: T2, monomeric human CSF1R ectodomain protein; assay: AlphaScreen competition with mu0301 IgG4(S228P) for biotinylated monomeric human CSF1R
Description: The AlphaScreen assay (Perkin Elmer) was performed in a 25 μl final volume in 384-well white microtiter plates (Greiner). The reaction buffer contained 1×PBS pH 7.3 (Oxoid, Cat. nr. BR0014G) and 0.05% (v/v) Tween® 20 (Sigma, Cat. nr. P9416). Purified IgG samples were titrated in three fold serial dilutions starting at 500 nM final concentration and incubated with biotinylated human CSF1R for 20 minutes at room temperature. […] The emission of light was measured in the EnVision multilabel plate reader (Perkin Elmer) and analysed using the EnVision manager software. Values were reported as Counts Per Second (CPS) and corrected for crosstalk. The EC50 values were calculated using the […] in GraphPad Prism software (GraphPad Software, La Jolla, Calif.).

human insulin = biological target: T3, human insulin (human, UniProt P01308 25-54; P01308 90-110, limits assumed); assay: ELISA on human insulin (development risk, polyreactivity), binding score
T3 construct: Coated antigen of the polyreactivity ('PK-risk indicator') ELISA

[4] = biological target: T2, monomeric human CSF1R ectodomain protein; assay: SPR Biacore, IgG captured, monomeric CSF1R analyte; remark: listed apart in the source
Description: as §1

[5] = biological target: T1, monomeric cynomolgus monkey CSF1R …; assay: SPR Biacore, IgG captured, monomeric CSF1R analyte
Description: as §1

T3 sequence (P01308 25-54 limits assumed, chain 1 of 2): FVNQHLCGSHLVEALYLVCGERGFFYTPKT
T3 sequence (P01308 90-110 limits assumed, chain 2 of 2): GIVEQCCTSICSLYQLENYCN

Row | Binder | Kd [1] | koff [1] | kon [1] | Kd [2] | koff [2] | kon [2] | IC50 [3] | binding result (human insulin) | Kd [4] | koff [4] | kon [4] | Kd [5] | koff [5] | kon [5] | fold of the affinity of hu0301 [4] | fold of the affinity of hu0301 [5]
1 | B1 | 0.39 nM | 0.0006 s⁻¹ | 1.6e+06 M⁻¹ s⁻¹ | 1.2 nM | 0.00032 s⁻¹ | 270000 M⁻¹ s⁻¹ | 4.6 nM | – | – | – | – | – | – | – | – | –
2 | B2 | – | – | – | – | – | – | – | no binding | 0.834 nM | 0.00112 s⁻¹ | 1.35e+06 M⁻¹ s⁻¹ | 1.33 nM | 0.000906 s⁻¹ | 683000 M⁻¹ s⁻¹ | – | –
3 | B3 | – | – | – | – | – | – | – | no binding | 0.634 nM | 0.000921 s⁻¹ | 1.45e+06 M⁻¹ s⁻¹ | 1.03 nM | 0.000758 s⁻¹ | 733000 M⁻¹ s⁻¹ | – | –
4 | B4 | – | – | – | – | – | – | – | no binding | – | – | – | – | – | – | – | –
5 | B5 | – | – | – | – | – | – | – | no binding | 0.562 nM | 0.000961 s⁻¹ | 1.71e+06 M⁻¹ s⁻¹ | 0.913 nM | 0.000813 s⁻¹ | 891000 M⁻¹ s⁻¹ | – | –
6 | B6 | – | – | – | – | – | – | – | – | 0.397 nM | 0.000976 s⁻¹ | 2.46e+06 M⁻¹ s⁻¹ | 0.777 nM | 0.000833 s⁻¹ | 1.07e+06 M⁻¹ s⁻¹ | ≤ 2 fold | ≤ 2 fold
7 | B7 | – | – | – | – | – | – | – | no binding | 0.553 nM | 0.00113 s⁻¹ | 2.05e+06 M⁻¹ s⁻¹ | 0.948 nM | 0.00101 s⁻¹ | 1.06e+06 M⁻¹ s⁻¹ | – | –
8 | B8 | – | – | – | – | – | – | – | no binding | 0.444 nM | 0.000897 s⁻¹ | 2.02e+06 M⁻¹ s⁻¹ | 0.785 nM | 0.00075 s⁻¹ | 956000 M⁻¹ s⁻¹ | ≤ 2 fold | ≤ 2 fold
9 | B9 | – | – | – | – | – | – | – | no binding | 0.342 nM | 0.000832 s⁻¹ | 2.43e+06 M⁻¹ s⁻¹ | 0.557 nM | 0.000726 s⁻¹ | 1.3e+06 M⁻¹ s⁻¹ | ≤ 2 fold | ≤ 2 fold
10 | B10 | – | – | – | – | – | – | – | no binding | 0.851 nM | 0.00109 s⁻¹ | 1.28e+06 M⁻¹ s⁻¹ | 1.46 nM | 0.000972 s⁻¹ | 666000 M⁻¹ s⁻¹ | – | –
11 | B11 | – | – | – | – | – | – | – | – | 0.776 nM | 0.00119 s⁻¹ | 1.53e+06 M⁻¹ s⁻¹ | 1.29 nM | 0.00103 s⁻¹ | 802000 M⁻¹ s⁻¹ | – | –
12 | B12 | – | – | – | – | – | – | – | – | 0.62 nM | 0.00127 s⁻¹ | 2.04e+06 M⁻¹ s⁻¹ | 0.979 nM | 0.00103 s⁻¹ | 1.05e+06 M⁻¹ s⁻¹ | – | –
13 | B13 | – | – | – | – | – | – | – | no binding | 0.709 nM | 0.00177 s⁻¹ | 2.49e+06 M⁻¹ s⁻¹ | 1.24 nM | 0.00134 s⁻¹ | 1.08e+06 M⁻¹ s⁻¹ | – | –
14 | B14 | – | – | – | – | – | – | – | – | 0.624 nM | 0.00088 s⁻¹ | 1.41e+06 M⁻¹ s⁻¹ | 1.07 nM | 0.000754 s⁻¹ | 705000 M⁻¹ s⁻¹ | – | –
15 | B15 | – | – | – | – | – | – | – | no binding | 1.23 nM | 0.00189 s⁻¹ | 1.54e+06 M⁻¹ s⁻¹ | 1.84 nM | 0.00137 s⁻¹ | 746000 M⁻¹ s⁻¹ | – | –
